The source of these data is PMC4542545.

This experiment concerns the target taxol stabilized microtubules assembled from MAP-free tubulin from bovine brain (bovine) (UniProt Q6B856). As to the kind of experiment: co-sedimentation; 1.5 μM GFP-tagged TPPP/p25 with increasing concentrations of taxol stabilized MTs, 15 min at 37 °C, centrifugation; GFP fluorescence of pellets and supernatants; apparent Kd (likely a composite of MT binding and TPPP/p25 dimerization or oligomerization).
As to “GFP-tagged TPPP/p25 ΔC(158) (from UniProt O94811 1-157) (domain or fragment)”, the Kd was 1750 nM.
With “GFP-tagged TPPP/p25 ΔN(49) (from UniProt O94811 50-219) (domain or fragment)”, the Kd is 860 nM.
In the case of “GFP-tagged full-length TPPP/p25 (from UniProt O94811 1-219) (natural protein)”, the Kd was found to be 1440 nM.
